Target: BSA (UniProt P02769 25-607)
Assay: indirect ELISA, protein coated, anti-6xHis detection, OD450

BSA, sequence (P02769 25-607 limits assumed): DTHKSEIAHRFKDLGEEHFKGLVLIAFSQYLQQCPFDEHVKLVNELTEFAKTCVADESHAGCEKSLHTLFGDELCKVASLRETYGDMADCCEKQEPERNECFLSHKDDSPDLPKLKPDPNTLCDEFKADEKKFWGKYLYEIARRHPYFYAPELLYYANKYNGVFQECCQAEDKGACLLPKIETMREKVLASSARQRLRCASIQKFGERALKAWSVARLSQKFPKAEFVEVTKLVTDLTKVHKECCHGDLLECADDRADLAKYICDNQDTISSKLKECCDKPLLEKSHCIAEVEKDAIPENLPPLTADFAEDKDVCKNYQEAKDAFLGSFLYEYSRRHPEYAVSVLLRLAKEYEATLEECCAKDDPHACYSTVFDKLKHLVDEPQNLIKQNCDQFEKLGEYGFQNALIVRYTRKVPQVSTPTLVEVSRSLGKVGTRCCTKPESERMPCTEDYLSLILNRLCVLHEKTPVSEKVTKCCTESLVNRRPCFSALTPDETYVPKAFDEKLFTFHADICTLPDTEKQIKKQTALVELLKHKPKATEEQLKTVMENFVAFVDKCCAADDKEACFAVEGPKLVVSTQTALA

B1: VHH-A35R纳米抗体 (VHH)
VHH: AVQLVESGGGLAQTGGSLRLSCAASGRAFRDYAMAWFRQAPGKEREFVAAVSKTGYAIRYEDSVKGRFTISRDNAKNTVSLQMASLKVEDTAVYYCAADRTHRLGYSLRVDPLGYDDWGQGTQVTVSS
binding result: no binding
